The test system of series [1] is U266 myeloma cells. The series can be described thus: NK-cell deficient NOD/Shi-scid/IL-2Rγ−/− mouse model. The conditions noted are these: U266 grafted to NOD/Shi-scid/IL-2Rγ−/− mice. The format is in vivo. On the procedure:
(FIG. 20F) Animal survival following BI-505 or control antibody treatment in a disseminated NK-cell deficient NOD/Shi-scid/IL-2Rγ^−/− mouse model comprising i.v. grafted U266 myeloma cells. ***p<0.001.
Six-eight weeks-old female NOD/Shi-scid IL-2Rγ^−/− mice were obtained from Taconic, Denmark. Five million (5×10^6) RPMI-8226 or U266 tumor cells in 200 μL of RPMI 1640 were intravenously injected into the caudal vein (day 0). The tumor cell injection was performed 2 hr after whole body irradiation of mice (1.5 Gy, Cesium 137, IBL 637). At day 4, mice were randomized into 6 groups and treatment was initiated according to the schedule below.

Series [2] has as its target T1, mouse FcγRIV (Mus musculus, UniProt A0A0B4J1G0).
T1 construct: made in house; host or cells: HEK293E cells (transient)
T1 sequence (A0A0B4J1G0 21-249): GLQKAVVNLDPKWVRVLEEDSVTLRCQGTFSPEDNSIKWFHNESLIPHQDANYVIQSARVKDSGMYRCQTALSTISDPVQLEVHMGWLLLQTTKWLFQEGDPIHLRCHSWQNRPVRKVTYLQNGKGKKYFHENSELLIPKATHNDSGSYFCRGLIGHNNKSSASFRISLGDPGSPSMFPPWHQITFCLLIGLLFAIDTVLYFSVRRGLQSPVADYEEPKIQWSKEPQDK
The series can be described thus: BiaCore analysis of BI-505 Fc-variant binding to FcγR. On the procedure: (FIG. 20B) BiaCore analysis of BI-505 Fc-variant antibodies binding to mouse FcγRIV.
(§1) His-tagged human FcγRIIIa and mouse FcγRIV were transiently expressed in HEK293E cells, purified using Ni-NTA chromatography, and characterized by SDS-PAGE and/or Biacore. Surface plasmon resonance (SPR) measurements were performed using a Biacore 3000 instrument. Goat F(ab)′2 α-human-F(ab)′2 fragments (Jackson Laboratories) were immobilized with a CM-5 chip using a standard amine coupling protocol. BI-505 (IgG1) and IgG4 or IgG1 297Q variants of BI-505 were diluted to 15 and 60 μg/mL respectively and added to the surface at 10 μL/min for 3 min. His-tagged human FcγRIIIa or mouse FcγRIV was pre-incubated with an α-HIS antibody (R&D Systems) at a 2:1 molar ratio before addition to the chip surface, 30 μL/min, for 1 min. After each cycle the surface was regenerated twice with glycine buffer pH 1.7.
On the technique in general: SPR reads the build-up and loss of mass on a sensor chip optically.

Series [3] deals with PBMC. The series can be described thus: PBMC cytokine release. In kind it is cell-based, human. The note with it: immobilized (air-dried or wet coated) or in solution. On the procedure: (FIG. 23D) Antibody-induced PBMC cytokine release. PBMC cytokine release was measured by ELISA of cell culture supernatants for IL-1β, IL-2, IL-6, IL-8, IFN-γ and TNF-α following incubation of cells in plates coated with hyper cross-linked (air-dried “A” or wet coated “W”) BI-505, isotype control, or positive control Okt-3 antibody.
(FIG. 23E) Antibody-induced cytokine release in LPS-primed PBMC. PBMC were incubated with titrated LPS and concentrations yielding submaximal cellular release of IL-1β. (100 pg/ml), IL-6 (10 pg/ml), IL-8 (10 pg/ml), and TNF-α (10 pg/ml) were determined (arrows, left panel), and used in subsequent experiments assessing antibody (BI-505 or ctrl IgG) effects on cytokine release from LPS-primed PBMC (right panel). Treatment with 100 ng/ml LPS served as positive control for robust cytokine release.
Cytokine release and T cell proliferation are thought to be common causes of mild and severe adverse reactions to antibody therapy. In order to further investigate any undesirable effects of BI-505 on ICAM-1 expressing immune cells, we therefore assessed putative effects of BI-505 on peripheral blood mononuclear cell (PBMC) cytokine release and T cell proliferation. […]
For cell culture cytokine quantifications, cells were seeded in 96-well cell culture wet and air-dried coated plates at a density of 1×10^6 cells/mL and cultured with antibodies for 24 hr. […]

For series [4], the system named is MDA MB 435. Kind of series: IgG binding to tumour cell line, flow cytometry MFI. Further details: species or system human. The note with it: MDA MB 435, Melanoma. The text has this: The antigen distribution of human antibody targeted antigens, mainly for B11, on different carcinoma cell lines was investigated. Cells (MCF-7 and MDA MB 435S breast carcinoma, JAR and JEG-3 chorio-carcinoma, A549 lung carcinoma, TCC-SUP urinary bladder carcinoma, MDA MB 435 melanoma, HPAC, PANC-1 and BxPC-3 pancreatic carcinoma, PC-3 and DU145 prostate carcinoma, LS174 T, CaCo2, and Lovo colorectal carcinoma, and THP-1 monocytic leukaemia cells), were washed in PBS, and resuspended at 4×10^6 cells/ml in Complete Medium (200,000 cells/50 […] sample). […] Cells were incubated with either of the antibodies for 1 hour on ice, washed by resuspension in PBS/BSA 0.5%, centrifuged at 1200 rpm for 5 min, and complete aspiration of the supernatants was undertaken. Cells were incubated with PE-conjugated Goat F(ab′)2 anti-Human IgG (Caltag Laboratories, Cat no: H10104), diluted 1/50 in PBS/BSA 0.5%, for 30 min, on ice. Following resuspension of in 300 μl PBS/BSA 0.5%, cells were analysed for IgG binding using a FACScan instrument.
On the technique in general: Flow cytometry measures light scatter and fluorescence of single cells or particles in a stream.

For series [5], the target named is T2, human FcγRIIIa (Homo sapiens, UniProt P08637).
T2 construct: made in house; host or cells: HEK293E cells (transient)
Kind of series: BiaCore analysis of BI-505 Fc-variant binding to FcγR. On the procedure:
(FIG. 20C) BiaCore analysis of BI-505 Fc-variant antibodies binding to human FcγRIIIa.
as §1

T2 sequence (P08637 17-254): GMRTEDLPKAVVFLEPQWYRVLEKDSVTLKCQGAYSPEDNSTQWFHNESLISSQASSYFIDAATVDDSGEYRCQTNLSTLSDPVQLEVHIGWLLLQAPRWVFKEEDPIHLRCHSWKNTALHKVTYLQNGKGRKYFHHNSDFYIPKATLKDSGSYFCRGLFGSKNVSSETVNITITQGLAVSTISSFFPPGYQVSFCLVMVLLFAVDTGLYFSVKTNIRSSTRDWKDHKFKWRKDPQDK

B1: B11: fully human IgG1 antibody specific for ICAM-1; VH and VL sequences of FIG. 10 (SEQ ID NOs. 6 and 8) (antibody, listed as Homo sapiens, V domains shown)
VH: EVQLLESGGGLVQPGGSLRLSCAASGFTFSNAWMSWVRQAPGKGLEWVAFIWYDGSNKYYADSVKGRFTISRDNSKNTLYLQMNSLRAEDTAVYYCARYSGWYFDYWGQGTLVTVSS
VL: QSVLTQPPSASGTPGQRVTISCTGSSSNIGAGYDVHWYQQLPGTAPKLLIYDNNNRPSGVPDRFSGSKSGTSASLAISGLRSEDEADYYCQSYDSSLSAWLFGGGTKLTVLG
B1: the “antitumor activity” value in series [1] is “significant antitumor activity”. Besides, the “binding to mouse FcγRIV, order” value in series [2] is “IgG1 N297Q<IgG4<IgG1”. Also, in series [3], the “PBMC cytokine release” value was “did not, however, induce PBMC cytokine release”. In addition, in series [4], the MFI was 4000. For the same molecule, the “binding to human FcγR” value in series [5] is on record as “bound to human FcγR”.

The values are drawn from patent US9803013B2, “Biological materials and uses thereof” (BioInvent International AB, priority 2005, dated 2017).
